Data on one molecule can be found in patent publication US20240383993A1 (LANOVA MEDICINES, published 2024).

Where only a bound is given, the exact number is not on record here.

The term IC50 denotes the point on the concentration scale where inhibition reaches its midpoint. Higher therefore signals weaker potency in that assay. Broadly, the EC50 is the concentration giving half of the maximal effect.

Experiment [1] addresses T1, human 4-1BB expressed on cells (human, UniProt Q07011 24-255).
T1 construct: whole, on cells; also called CHO-K1/hu4-1BB; cell surface human 4-1BB
Put plainly: flow cytometry competition with biotinylated human 4-1BB ligand on CHO-K1/human 4-1BB cells. As to the method:
CHO-K1 cells overexpressing human 4-1BB were incubated with biotinylated human 4-1BB ligand (0.3 μg/ml) in the presence of serial diluted anti-41BB nanobodies for 1 h at 4° C. with Ref mAb as the reference antibody. Then, cells were incubated with Alexa Fluor 633-conjugated streptavidin. Binding was measured with an Agilent flow cytometer. As shown in FIG. 2 and Table 3, all of the tested nanobodies could block 4-1BB ligand binding to 4-1BB in a concentration-dependent manner while Ref mAb had no such effect.

In experiment [2] the target is T2, His-tagged cynomolgus 4-1BB protein (cynomolgus, UniProt A9YYE7 24-186).
T2 construct: Coated on ELISA plates at 2 µg/ml; also called Cyno 4-1BB; soluble cynomolgus 4-1BB; not shown: His tag
T2 sequence: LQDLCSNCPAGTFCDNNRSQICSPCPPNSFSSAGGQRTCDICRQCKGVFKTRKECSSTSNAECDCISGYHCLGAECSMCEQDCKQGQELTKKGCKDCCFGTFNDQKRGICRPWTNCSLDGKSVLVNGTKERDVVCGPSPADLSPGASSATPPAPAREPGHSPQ
Put plainly: ELISA, coated His-tagged 4-1BB, anti-human IgG-HRP. The procedure:
(§1) His-tagged 4-1BB was coated at 2 μg/ml overnight and then blocked by 2% BSA in PBS. Serially diluted anti-4-1BB nanobodies were incubated with the coated antigen for 1h at room temperature with a reference antibody “Ref mAb”. The resulting plates were washed with PBS/T and incubated with goat anti-human IgG-HRP for 1 h at room temperature. The plates were developed with TMB substrate and analyzed by spectrophotometer at OD 450 nm.

Experiment [3] has as its target T3, His-tagged human 4-1BB protein (human, UniProt Q07011 24-186).
T3 construct: Coated on ELISA plates at 2 µg/ml; also called hu4-1BB; soluble human 4-1BB; not shown: His tag
Put plainly: ELISA, coated His-tagged 4-1BB, anti-human IgG-HRP. As to the method: as §1

Experiment [4] deals with T1, human 4-1BB expressed on cells. Put plainly: cell-based or functional assay.

T1 sequence (Q07011 24-255): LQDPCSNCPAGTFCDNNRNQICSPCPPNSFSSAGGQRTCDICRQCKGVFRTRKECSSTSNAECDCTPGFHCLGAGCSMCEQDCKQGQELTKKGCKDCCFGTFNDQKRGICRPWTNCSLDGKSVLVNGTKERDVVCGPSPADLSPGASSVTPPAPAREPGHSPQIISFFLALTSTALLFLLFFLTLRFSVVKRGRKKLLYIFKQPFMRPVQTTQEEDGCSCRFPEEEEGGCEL

B1: VV02-1LP-263 (Fc fusion)
VHH: EVQLVESGGGLVQPGGSLRLSCAASGFTFSSSAMSWARQTPGKGFEWVSGIYSDGSTYYTDSVKDRFTISRDNAKNTVYLQMNSLKPEDTAVYYCATWGTLRFGVWAEYDHWGQGTQVTVSS
notes: Llama nanobody tested as fusion with human IgG1 Fc (N297A); not shown: Human IgG1 Fc fragment with N297A, fused at the C-terminus of the VHH
For the molecule B1, the IC50 in experiment [1] is 566 pM. The EC50 in experiment [2] was 40 pM; in experiment [3] it was more than 30000 pM. In addition, the “EC50 (nM) in Jurkat-41BB NFκB reporter assay” value in experiment [4] was found to be 0.017 nM.
